From patent US6120991

Assays:
integrin α3 β1 (human) = integrin α3 β1 (human) (UniProt P26006)
integrin α6 β4 (human) = integrin α6 β4 (human) (UniProt P23229)

- % adherent HFF control cells on epiligrin-ECM^t at 37° C. (time course) (% adherent cells) (integrin α3 β1 (human)): 57
- % adherent 51Cr-labeled HFK cells on epiligrin-ECM^t at 4° C. (time course) (% adherent cells) (integrin α6 β4 (human)): 28
Substance: epiligrin-ECM^t (epiligrin left on the substratum after HFK were detached from their ECM with trypsin) (ligand)
